From paper PMC6951436

What was measured:
[1] = biological target: pyruvate kinase liver isoform (PKL) (UniProt P12928); assay: size-exclusion chromatography of oligomeric state; conditions: reference: non-phosphorylated PKL (WT); sites S113
[2] = biological target: pyruvate kinase liver isoform (PKL) (UniProt P12928); assay: native PAGE of oligomeric state; conditions: reference: non-phosphorylated PKL (WT); sites S113

Sequence of pyruvate kinase liver isoform (PKL) (UniProt P12928) (P12928 whole entry, looked up, canonical isoform): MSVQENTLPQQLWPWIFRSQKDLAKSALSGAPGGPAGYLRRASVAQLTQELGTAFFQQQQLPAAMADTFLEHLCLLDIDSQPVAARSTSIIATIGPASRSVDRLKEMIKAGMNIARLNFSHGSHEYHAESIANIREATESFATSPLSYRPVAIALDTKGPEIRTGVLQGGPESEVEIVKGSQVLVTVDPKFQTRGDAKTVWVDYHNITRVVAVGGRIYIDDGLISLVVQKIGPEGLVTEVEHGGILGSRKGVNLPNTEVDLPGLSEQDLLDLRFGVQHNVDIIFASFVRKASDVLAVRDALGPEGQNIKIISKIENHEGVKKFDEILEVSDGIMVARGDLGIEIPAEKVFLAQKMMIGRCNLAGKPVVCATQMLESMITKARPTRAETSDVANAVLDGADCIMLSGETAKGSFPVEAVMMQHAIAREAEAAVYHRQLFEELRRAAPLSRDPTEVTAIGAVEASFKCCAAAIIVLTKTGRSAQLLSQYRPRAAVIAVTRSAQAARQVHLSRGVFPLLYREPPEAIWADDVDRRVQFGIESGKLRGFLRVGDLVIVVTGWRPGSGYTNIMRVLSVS
Sequence of pyruvate kinase liver isoform (PKL) (from UniProt P12928-2) PKL pS113 proteoform (P12928 whole entry, looked up, change not shown, canonical isoform): as the sequence (P12928 whole entry, looked up, canonical isoform) above

binding against the reference [1]: same | binding against the reference [2]: same
Substance: pyruvate kinase liver isoform (PKL) (from UniProt P12928-2) PKL pS113 proteoform
